Results as given in PMC10065799, “High-throughput profiling of sequence recognition by tyrosine kinases and SH2 domains using bacterial peptide display” (eLife, 2023).

Legend:
c-Src kinase domain = c-Src kinase domain (Homo sapiens, UniProt P12931); assay: RP-HPLC assay to measure peptide phosphorylation kinetics; type: biochemical; settings: purified peptide substrate
FGFR1 kinase domain = assay: LC-MS assay of intact SHP2 protein phosphorylation; type: biochemical, human; settings: SHP2 10 μM, kinase 1 μM, 1 hr, 37 °C, 2 to 3 measurements
Experimental: (§1) The same protocol used to express and purify SH2 domains, excluding co-expression of BirA and addition of biotin, was applied to the expression and purification of the SHP2 variants.
(§2) To pre-activate the kinases, 1 μM of each purified kinase domain was preincubated at 37 °C for 30 min in the same buffer conditions used in the kinase domain peptide display screen, with 1 mM ATP. The reaction of the kinase with SHP2 was initiated with the addition of 10 μM SHP2, and the mixture was incubated in 37 °C for 1 hr. To terminate the reaction, the mixture was quenched with 200 mM EDTA. The reaction mixture was diluted 3:2 in water and injected onto a BEH C8 column (Waters) on a UPLC-MS system (Xevo QToF, Waters). Reverse-phase liquid chromatography was carried out at 0.3 mL/min with solvents A (H2O, 0.1% (v/v) formic acid) and B (acetonitrile, 0.1% (v/v) formic acid). Proteins were eluted over a gradient of 5–95% B for 8.5 min. The protein peak on the chromatogram was deconvoluted using the MaxEnt1 algorithm from 32,000–65,000 Da with a resolution of 1 Da/channel over 30 iterations. Peaks were chosen according to the theoretical MW of the protein within a range of 5 Da, and integrated for the signal intensity.

Fyn kinase domain = assay: LC-MS assay of intact SHP2 protein phosphorylation; type: biochemical, human; settings: SHP2 10 μM, kinase 1 μM, 1 hr, 37 °C, 2 to 3 measurements
Experimental: as §1, §2

| Phosphorylation Rate (c-Src kinase domain) [s⁻¹] | phosphorylation of intact SHP2 by FGFR1 (FGFR1 kinase domain) | phosphorylation of intact SHP2 by Fyn (Fyn kinase domain) | Molecule |
| --- | --- | --- | --- |
| 0.156 | – | – | Ac-AGQEEYSAMRD-NH2 [HRAS-Y64] |
| – | fastest | slowest | SHP2 wild-type: human full-length SHP2 (residues 1–526; C459E) (protein, UniProt Q06124 2-593, looked up, variant C459E) Tyrosine-protein phosphatase …: TSRRWFHPNITGVEAENLLLTRGVDGSFLARPSKSNPGDFTLSVRRNGAVTHIKIQNTGDYYDLYGGEKFATLAELVQYYMEHHGQLKEKNGDVIELKYPLNCADPTSERWFHGHLSGKEAEKLLTEKGKHGSFLVRESQSHPGDFVLSVRTGDDKGESNDGKSKVTHVMIRCQELKYDVGGGERFDSLTDLVEHYKKNPMVETLGTVLQLKQPLNTTRINAAEIESRVRELSKLAETTDKVKQGFWEEFETLQQQECKLLYSRKEGQRQENKNKNRYKNILPFDHTRVVLHDGDPNEPVSDYINANIIMPEFETKCNNSKPKKSYIATQGCLQNTVNDFWRMVFQENSRVIVMTTKEVERGKSKCVKYWPDEYALKEYGVMRVRNVKESAAHDYTLRELKLSKVGQGNTERTVWQYHFRTWPDHGVPSDPGGVLDFLEEVHHKQESIMDAGPVVVHESAGIGRTGTFIVIDILIDIIREKGVDCDIDVPKTIQMVRSQRSGMVQTEAQYRFIYMAVQHYIETLQRRIEEEQKSKRKGHEYTNIKYSLADQTSGDQSPLPPCTPTPPCAEMREDSARVYENVGLMQQQKSFR |
